The values that follow come from paper PMC11252911 (Proceedings of the National Academy of Sciences of the …, 2024).

Test in all cases: ITC
In general terms: In ITC the heat of successive injections is recorded.

Assay [1] deals with Pwl4 (Magnaporthe oryzae).
The target of assay [2] is Pwl2 without the signal peptide (residues 22 to 145) (Magnaporthe oryzae).
Assay [3] has as its target T1, HMA domain of OsHIPP43 (residues 26 to 101) (rice, UniProt Q8LJL3 26-101).
T1 construct: also called Os01g0507700
T1 sequence (looked up): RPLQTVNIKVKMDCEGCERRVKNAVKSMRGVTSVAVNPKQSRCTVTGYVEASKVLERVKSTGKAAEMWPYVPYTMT
As to conditions: both partners purified.

For “HMA domain of OsHIPP43 (residues 26 to 101) (from UniProt Q8LJL3 26-101) (domain or fragment)”, the results for the Kd in assay [1] and in assay [2] were 0.124 µM and 0.191 µM, respectively. In assay [2], this molecule showed a dH of -283 kJ/mol.

B1: Pwl1 (natural protein)
chain: RKWTNKVIYNDKGEREGSISIRKGAEGDFNCGPGYPGGPDRMVRVHEDNGNIRGMPPGYRLGPDDKEDKRDNQYYSRNGYHVGDGPAEYQNHGGGQWGDGYYGPPGEITNQHGKRQGDQGCHIM
In assay [3], B1 registered a Kd of 0.147 µM.

The Kd is the concentration at which binding is half-saturated.
